Laboratory results: patent publication US20070020258A1 (published 2007)

Experiments:
[1] = biological target: T1, human IgE (ND and PS allotypes) (human, UniProt P01854-1 1-428, tracer iodinated with 125I (chloramine T)); assay: 125I-IgE equilibrium binding, Scatchard
T1 construct: IgE used for the Scatchard Kd; also called 125I IgE; unlabelled IgE
Description: e. Scatchard analysis was performed utilizing a Fortran program (scanplot) based on the Ligand program written by P. Munson at NIH. Scatplot uses a mass action equation fitting bound as a function of total using the Rodbard type regression analysis.

[2] = biological target: T2, human IgE purified from U266B1 cells (human, UniProt P01854-1 1-428); assay: IgE/FcεRI inhibition ELISA
T2 construct: domain: Fcε4; Whole IgE; its X residues are spacers that keep Kabat numbering and are not part of the protein; also called U266 IgE; U266 IgE standard
Description: A 96-well assay plate (Manufn Nunc.) was coated with 0.05 ml of the FcεRI alpha chain IgG1 chimeric receptor in 1 μg/ml coating buffer ([…] carbonate/bicarbonate, pH 9.6). Assay was done for 12 hours at 4-8° C. The wells were aspirated and 250 μl blocking buffer (PBS-1% BSA pH 7.2) was added and incubated for one hour at 4° C. […] The FcεRI-coated wells were washed three times with PBS-0.05% Tween20, and then 50 μl from the sample wells were transferred and incubated with agitation for 30 minutes at 25° C. 50 μl/well of streptavidin-HRP diluted 1:5000 in assay buffer was incubated for 15 minutes with agitation and then the plate was washed as before. 50 μl/well of Microwell peroxidase substrate (Kirkgaard & Parry Laboratories) was added and color was developed for 30 minutes.

T1 sequence (P01854 other isoform, or with tags, fused parts or gaps): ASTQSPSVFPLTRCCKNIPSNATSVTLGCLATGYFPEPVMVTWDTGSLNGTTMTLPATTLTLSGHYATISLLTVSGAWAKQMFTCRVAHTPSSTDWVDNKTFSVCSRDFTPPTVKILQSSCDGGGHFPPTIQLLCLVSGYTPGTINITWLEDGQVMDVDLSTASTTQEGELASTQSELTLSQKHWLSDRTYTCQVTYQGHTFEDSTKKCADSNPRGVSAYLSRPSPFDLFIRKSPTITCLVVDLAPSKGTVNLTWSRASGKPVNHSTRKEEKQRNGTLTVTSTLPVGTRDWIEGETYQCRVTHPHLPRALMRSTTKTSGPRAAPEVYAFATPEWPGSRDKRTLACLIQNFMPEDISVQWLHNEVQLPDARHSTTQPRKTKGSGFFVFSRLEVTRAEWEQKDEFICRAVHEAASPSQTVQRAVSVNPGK
T2 sequence (P01854 other isoform, or with tags, fused parts or gaps): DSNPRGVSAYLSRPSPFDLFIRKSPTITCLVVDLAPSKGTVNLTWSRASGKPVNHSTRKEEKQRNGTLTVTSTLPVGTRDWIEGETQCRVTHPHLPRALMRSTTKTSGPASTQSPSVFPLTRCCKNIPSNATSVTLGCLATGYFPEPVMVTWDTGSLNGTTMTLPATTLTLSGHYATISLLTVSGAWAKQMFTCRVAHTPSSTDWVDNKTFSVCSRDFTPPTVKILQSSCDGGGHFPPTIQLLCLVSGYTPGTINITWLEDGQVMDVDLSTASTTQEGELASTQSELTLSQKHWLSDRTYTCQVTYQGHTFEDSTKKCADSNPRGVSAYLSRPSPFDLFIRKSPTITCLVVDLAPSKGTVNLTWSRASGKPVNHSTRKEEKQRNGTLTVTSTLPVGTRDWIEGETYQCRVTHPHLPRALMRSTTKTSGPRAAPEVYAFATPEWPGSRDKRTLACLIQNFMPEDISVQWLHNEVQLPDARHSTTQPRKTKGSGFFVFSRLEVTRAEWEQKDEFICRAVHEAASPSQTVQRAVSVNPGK

Binder	Kd [1]	ratio Var. X / IgL1H1 [2]	ratio Var. X / MaE11 [2]
MAE15 (antibody, V domains shown, murine IgG1) VH: DVQHQESEPDLVKPSQSLSLTCTVTGYSITSGYNRHWIRQFPGNKLEWMGYIHYSGSTNYNPSLKRRISITRDTSKNQFFLQLNSVTTEDTATYYCARGSIYYYGSRYRYFDVWGAGTTVTVSS VL: DIQLTQSPASLAVSLGQRATISCKASQSVDYDGDSYMNWYQQKPGQPPKLLIYAASNLESGIPARFSGSGSGTDFTLNIHPVEEEDAATYYCQQSNEDPFTFGAGT	70 nM	–	–
MAE13 (antibody, V domains shown, murine IgG1) VH: DVQLQESGPGLVKPSQSLSLTCTVTGYTITSDNAWNWIRQFPGNKLEWMGYINHSGTTSYNPSLKSRISITRDTSKNQFFLQLNSVTTEDTATYYCAWVVAYAMDYWGQGTSVTVSS VL: DIVMTQSQKFMSTSVGDRVSVTCKASQNVSSNVAWYQQKPGQSPKALIYSASYRYSGVPDRFTGSGSGTDFTLTISNVQSEDLAEYFCQQYYTYPLYTFGGGTKLEIKR	50 nM	–	–
MAE11 (antibody, V domains shown, murine IgG1) VH: DVQLQESGPGLVKPSQSLSLACSVTGYSITSGYSWNWIRQFPGNKLEWMGSITYDGSSNYNPSLKNRISVTRDTSQNQFFLKLNSATAEDTATYYCARGSHYFGHWHFAVWGAGTTVTVSS VL: DIVLTQSPASLAVSLGQRATISCKASQSVDYDGDSYMNWYQQKPGQPPILLIYAASYLGSEIPARFSGSGSGTDFTLNIHPVEEEDAATFYCQQSHEDPYTFGAGTKLEIK	30 nM	0.06	1
